Target: w.t. (UniProt P08581)
Assay: ELISA

Substance: DN30
- Kd: 446 pM

— patent publication US20210070868A1
